Measured values reported in patent US20100119511A1 (Biogen, published 2010).
“And” between values parts separate entries of the source, which are not always exact repeats. Identical values can stand only once.

B1: BIIB66A12 Fab (Fab, V domains shown)
VH: EVQLLESGGGLVQPGGSLRLSCAASGFTFSMYSMQWVRQAPGKGLEWVSVIGSSGGQTGYADSVKGRFTISRDNSKNTLYLQMNSLRAEDTAVYYCARVRDYYGSGSYYLDPWGQGTLVTVSS
VL: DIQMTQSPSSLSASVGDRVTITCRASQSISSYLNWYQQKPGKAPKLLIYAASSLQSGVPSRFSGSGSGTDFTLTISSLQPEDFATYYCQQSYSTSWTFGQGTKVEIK
notes: Soluble human Fab from a phagemid Fab library
B2: BIIB71F10 Fab (Fab, V domains shown)
VH: EVQLLESGGGLVQPGGSLRLSCAASGFTFSSYGMVWVRQAPGKGLEWVSSISSSGGLTWYADSVKGRFTISRDNSKNTLYLQMNSLRAEDTAVYYCASPPGIAVARDYWGQGTLVTVSS
VL: DIQMTQSPSSLSASVGDRVTITCRASQGISNYLAWYQQKPGKVPKLLIYAASTLQSGVPSRFSGSGSGTDFTLTISSLQPEDVATYYCQKYNSALLTFGGGTKVEIK
notes: Soluble human Fab; also called Fab 71F10
B3: BIIB65C10 Fab (Fab, V domains shown)
VH: EVQLLESGGGLVQPGGSLRLSCAASGFTFSYYPMMWVRQAPGKGLEWVSSIWPSGGFTKYADSVKGRFTISRDNSKNTLYLQMNSLRAEDTATYYCARVSSSSWYGYLYWGQGTLVTVSS
VL: not shown
notes: as for B1
B4: BIIB66C01 Fab (Fab, V domains shown)
VH: EVQLLESGGGLVQPGGSLRLSCAASGFTFSWYSMSWVRQAPGKGLEWVSSISSSGGPTHYADSVKGRFTISRDNSKNTLYLQMNSLRAEDTAVYYCARDSSYSGTSWGQGTLVTVSS
VL: QYELTQPPSVSGTPGQRVTISCSGSSSNIGSEYVYWFQQLPGTAPRLLIYRNDQRPSGVPDRFSGSKSGTSASLAISGLRSEDETDYYCTTWDDSLSGPVFGGGTKLTVL
notes: as for B1
B5: BIIB65H09 Fab (Fab, V domains shown)
VH: EVQLLESGGGLVQPGGSLRLSCAASGFTFSWYSMWWVRQAPGKGLEWVSSIVSSGGQTRYADSVKGRFTISRDNSKNTLYLQMNSLRAEDTAVYYCARVKGYYYYIDVWGKGTTVTVSS
VL: DIQMTQSPGTLSLSPGERATLSCRASQSVDSSYLSWYQQKPGQAPRLLIYGASTRATGIPARFSGSGSGTDFTLTVSRLEPEDFAVYYCQQHGYSSRTFGQGTKVEIK
notes: as for B1
B6: BIIB65B03 Fab (Fab, V domains shown)
VH: EVQLLESGGGLVQPGGSLRLSCAASGFTFSWYRMNWVRQAPGKGLEWVSSIYSSGGPTNYADSVKGRFTISRDNSQNTLYLQMNSLRAEDTAVYYCTREKPDYYDSSGYLDYWGQGTLVTVSS
VL: DIQMTQSPGTLSLSPGERSTLSCRASQSVSSSYLAWYQQKPGQAPRLLIYGASSRATGIPDRFSGSGSGTDFTLTISRLEPEDFGVYYCHQYGRPPVFGPGTKVDIK
notes: as for B1
B7: 71F10 Fab-hLIGHT fusion with the (G4S)4 linker (BIIB71F10-132) (other)
heavy: EVQLLESGGGLVQPGGSLRLSCAASGFTFSSYGMVWVRQAPGKGLEWVSSISSSGGLTWYADSVKGRFTISRDNSKNTLYLQMNSLRAEDTAVYYCASPPGIAVARDYWGQGTLVTVSSASTKGPSVFPLAPSSKSTSGGTAALGCLVKDYFPEPVTVSWNSGALTSGVHTFPAVLQSSGLYSLSSVVTVPSSSLGTQTYICNVNHKPSNTKVDKKVEPKSCDKGGGGSGGGGSGGGGSGGGGSNPAAHLTGANSSLTGSGGPLLWETQLGLAFLRGLSYHDGALVVTKAGYYYIYSKVQLGGVGCPLGLASTITHGLYKRTPRYPEELELLVSQQSPCGRATSSSRVWWDSSFLGGVVHLEAGEEVVVRVLDERLVRLRDGTRSYFGAFMV
light: DIQMTQSPSSLSASVGDRVTITCRASQGISNYLAWYQQKPGKVPKLLIYAASTLQSGVPSRFSGSGSGTDFTLTISSLQPEDVATYYCQKYNSALLTFGGGTKVEIKRTVAAPSVFIFPPSDEQLKSGTASVVCLLNNFYPREAKVQWKVDNALQSGNSQESVTEQDSKDSTYSLSSTLTLSKADYEKHKVYACEVTHQGLSSPVTKSFNRGEC
notes: Fab heavy chain fused to human LIGHT extracellular portion; assembles as a trimer; also called 71F10 Fab-(G4S)4-LIGHT

Molecular target: T1, D1 Her2-Fc
T1 construct: also called MR066; ErbB2-Fc Domain 1; not shown: huIgG1-Fc part
T1 chain: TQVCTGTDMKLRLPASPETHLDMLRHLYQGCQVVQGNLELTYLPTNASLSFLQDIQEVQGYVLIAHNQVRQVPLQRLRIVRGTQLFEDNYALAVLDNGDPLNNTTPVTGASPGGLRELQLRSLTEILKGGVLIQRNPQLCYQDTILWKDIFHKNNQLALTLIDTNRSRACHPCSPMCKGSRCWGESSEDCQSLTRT
Experiment: ELISA, HER2 domain-Fc captured on anti-huFc, detection HRP-anti-fab
Experimental: (§1) Nunc Maxisorp ELISA plates were coated with 5 ug/ml rabbit pAbs anti-human Fc gamma in PBS overnight at 4 degrees. Plates were washed one time with PBST (PBS, 0.05% tween 20) and blocked with 1% BSA in PBS for one hour at room temperature. Plates were washed one time with PBST and incubated with 1 ug/ml HER2-Fc fusion protein for one hour. Plates were washed three times with PBST and dilutions of Fab (four 5-fold serial dilutions, starting at 1 ug/ml) in block were added and incubated for ninety minutes. Plates were washed three times with PBST and incubated with 1:2,000 HRP-labelled goat anti-human kappa (Southern Biotech cat#2060-05) and HRP-labelled goat anti-human lambda (Southern Biotech cat#2070-05) in block for one hour at room temperature. Plates were washed three times with PBST, developed with TMB solution for 5 minutes, and stopped with equal volume 1 NH₂SO₄. Absorbance values were read at 450 nm.
B1: no binding (tested: 1 ug/ml (from paragraph 380, not on the sheet)).
B2: no binding (tested: 1 ug/ml (from paragraph 380, not on the sheet)).
B3: no binding (tested: 1 ug/ml (from paragraph 380, not on the sheet)).
B4: no binding (tested: 1 ug/ml (from paragraph 380, not on the sheet)).
B5: no binding (tested: 1 ug/ml (from paragraph 380, not on the sheet)).
B6: no binding (tested: 1 ug/ml (from paragraph 380, not on the sheet)).

Molecular target: T2, D1-D2 Her2-Fc
T2 construct: also called MR067; ErbB2-Fc Domains 1-2; not shown: huIgG1-Fc part
T2 chain: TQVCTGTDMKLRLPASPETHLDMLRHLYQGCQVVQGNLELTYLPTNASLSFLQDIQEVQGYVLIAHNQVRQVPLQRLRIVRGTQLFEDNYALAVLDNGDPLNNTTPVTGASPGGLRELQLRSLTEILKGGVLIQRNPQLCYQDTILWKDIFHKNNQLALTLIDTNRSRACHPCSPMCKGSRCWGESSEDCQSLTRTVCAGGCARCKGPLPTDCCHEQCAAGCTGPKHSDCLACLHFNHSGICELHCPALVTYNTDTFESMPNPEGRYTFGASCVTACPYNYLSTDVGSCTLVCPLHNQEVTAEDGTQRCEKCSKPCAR
Experiment: as above
Experimental: as §1
B1: no binding (tested: 1 ug/ml (from paragraph 380, not on the sheet)).
B4: no binding (tested: 1 ug/ml (from paragraph 380, not on the sheet)).
B5: no binding (tested: 1 ug/ml (from paragraph 380, not on the sheet)).
B6: no binding (tested: 1 ug/ml (from paragraph 380, not on the sheet)).

The binders below were run against Soluble human LTBR (shuLTBR) (human, UniProt P36941 31-227, limits assumed) (assay: SEC / light scattering).
Soluble human LTBR (shuLTBR), sequence (P36941 31-227 limits assumed): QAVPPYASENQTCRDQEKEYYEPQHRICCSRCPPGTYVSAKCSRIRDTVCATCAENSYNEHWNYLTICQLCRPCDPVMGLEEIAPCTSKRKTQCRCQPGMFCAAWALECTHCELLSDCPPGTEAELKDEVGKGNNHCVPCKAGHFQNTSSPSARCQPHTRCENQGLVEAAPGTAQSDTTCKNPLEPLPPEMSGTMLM
Experimental: Soluble human LTBR (shuLTBR) was prepared by limited proteolytic digestion of human LTBR-Ig and purified by chromatography on protein A Sepharose and Fractogel TMAE. […] Controls with each protein were also included. The samples were analyzed by SEC using a […] column (Phenomenex) in PBS with a Waters Alliance HPLC instrument.
For B7, the “stoichiometry (shuLTBR per Fab-Light trimer)” value was 2 shuLTBR per trimer and 3 shuLTBR per trimer.
